Results: the supplement of paper PMC5998384

Key:
[1] = tested on: HeLa Kyoto; experiment: melting temperature (median over replicates), in situ; higher = more thermally stable
[2] = tested on: HeLa Kyoto; experiment: solubility change mitosis vs G1/S (difference of NP-40 vs SDS log2 ratios) (log2 ratio difference); higher = more soluble in mitosis
[3] = tested on: HeLa Kyoto; experiment: thermal stability score vs G1/S (z-score of summed log2 fold changes over temperatures); higher = more thermally stable than in G1/S
[4] = tested on: HeLa Kyoto; experiment: solubility in G1/S (NP-40 vs SDS abundance) (log2 ratio); higher = more soluble; conditions: cell cycle stage: G1/S
[5] = cell cycle stage: early G1 (4.5 h after nocodazole release)
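Wherever melting temperature (median over replicates), in situ is given: HeLa Kyoto cells synchronized by double thymidine or nocodazole block, proteins quantified by TMT10plex mass spectrometry, three independent biological replicates.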
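Wherever solubility change mitosis vs G1/S (difference of NP-40 vs SDS log2 ratios) is given: synchronized HeLa Kyoto cells (double thymidine block for G1/S, nocodazole release for mitosis), protein amounts in NP-40 versus SDS lysates quantified by mass spectrometry, three biological replicates.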
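Wherever solubility in G1/S (NP-40 vs SDS abundance) is given: HeLa Kyoto cells arrested at G1/S by double thymidine block, proteins quantified by TMT10plex mass spectrometry in mild NP-40 versus SDS extracts, three biological replicates.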
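Wherever thermal stability score vs G1/S (z-score of summed log2 fold changes over temperatures) is given: synchronized HeLa Kyoto cells, proteins quantified by TMT10plex mass spectrometry, three biological replicates, mitosis taken 0.5 h after nocodazole release, G1/S directly after double thymidine block.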

| Sequence | melting temperature ([1]; cell cycle stage: G1/S) | melting temperature ([1]; cell cycle stage: mitosis) | solubility change mitosis (log2) [2] | thermal stability score [3, 5] | thermal stability score ([3]; cell cycle stage: mitosis) | solubility in G1/S (log2) [4] |
| --- | --- | --- | --- | --- | --- | --- |
| MAVFDTPEEAFGVLRPVCVQLTKTQTVENVEHLQTRLQAVSDSALQELQQYILFPLRFTLKTPGPKRERLIQSVVECLTFVLSSTCVKEQELLQELFSELSACLYSPSSQKPAAVSEELKLAVIQGLSTLMHSAYGDIILTFYEPSILPRLGFAVSLLLGLAEQEKSKQIKIAALKCLQVLLLQCDCQDHPRSLDELEQKQLGDLFASFLPGISTALTRLITGDFKQGHSIVVSSLKIFYKTVSFIMADEQLKRISKVQAKPAVEHRVAELMVYREADWVKKTGDKLTILIKKIIECVSVHPHWKVRLELVELVEDLLLKCSQSLVECAGPLLKALVGLVNDESPEIQAQCNKVLRHFADQKVVVGNKALADILSESLHSLATSLPRLMNSQDDQGKFSTLSLLLGYLKLLGPKINFVLNSVAHLQRLSKALIQVLELDVADIKIVEERRWNSDDLNASPKTSATQPWNRIQRRYFRFFTDERIFMLLRQVCQLLGYYGNLYLLVDHFMELYHQSVVYRKQAAMILNELVTGAAGLEVEDLHEKHIKTNPEELREIVTSILEEYTSQENWYLVTCLETEEMGEELMMEHPGLQAITSGEHTCQVTSFLAFSKPSPTICSMNSNIWQICIQLEGIGQFAYALGKDFCLLLMSALYPVLEKAGDQTLLISQVATSTMMDVCRACGYDSLQHLINQNSDYLVNGISLNLRHLALHPHTPKVLEVMLRNSDANLLPLVADVVQDVLATLDQFYDKRAASFVSVLHALMAALAQWFPDTGNLGHLQEQSLGEEGSHLNQRPAALEKSTTTAEDIEQFLLNYLKEKDVADGNVSDFDNEEEEQSVPPKVDENDTRPDVEPPLPLQIQIAMDVMERCIHLLSDKNLQIRLKVLDVLDLCVVVLQSHKNQLLPLAHQAWPSLVHRLTRDAPLAVLRAFKVLRTLGSKCGDFLRSRFCKDVLPKLAGSLVTQAPISARAGPVYSHTLAFKLQLAVLQGLGPLCERLDLGEGDLNKVADACLIYLSVKQPVKLQEAARSVFLHLMKVDPDSTWFLLNELYCPVQFTPPHPSLHPVQLHGASGQQNPYTTNVLQLLKELQ [TTI1] | 49.6 °C | 49.9 °C | -0.179 | 0.152 | 0.696 | -0.12 |
| MAVLLETTLGDVVIDLYTEERPRACLNFLKLCKIKYYNYCLIHNVQRDFIIQTGDPTGTGRGGESIFGQLYGDQASFFEAEKVPRIKHKKKGTVSMVNNGSDQHGSQFLITTGENLDYLDGVHTVFGEVTEGMDIIKKINETFVDKDFVPYQDIRINHTVILDDPFDDPPDLLIPDRSPEPTREQLDSGRIGADEEIDDFKGRSAEEVEEIKAEKEAKTQAILLEMVGDLPDADIKPPENVLFVCKLNPVTTDEDLEIIFSRFGPIRSCEVIRDWKTGESLCYAFIEFEKEEDCEKAFFKMDNVLIDDRRIHVDFSQSVAKVKWKGKGGKYTKSDFKEYEKEQDKPPNLVLKDKVKPKQDTKYDLILDEQAEDSKSSHSHTSKKHKKKTHHCSEEKEDEDYMPIKNTNQDIYREMGFGHYEEEESCWEKQKSEKRDRTQNRSRSRSRERDGHYSNSHKSKYQTDLYERERSKKRDRSRSPKKSKDKEKSKYR [PPIL4] | 49.2 °C | 50.3 °C | 0.0472 | 1.3 | 1.99 | -0.23 |
| MAVPAAAMGPSALGQSGPGSMAPWCSVSSGPSRYVLGMQELFRGHSKTREFLAHSAKVHSVAWSCDGRRLASGSFDKTASVFLLEKDRLVKENNYRGHGDSVDQLCWHPSNPDLFVTASGDKTIRIWDVRTTKCIATVNTKGENINICWSPDGQTIAVGNKDDVVTFIDAKTHRSKAEEQFKFEVNEISWNNDNNMFFLTNGNGCINILSYPELKPVQSINAHPSNCICIKFDPMGKYFATGSADALVSLWDVDELVCVRCFSRLDWPVRTLSFSHDGKMLASASEDHFIDIAEVETGDKLWEVQCESPTFTVAWHPKRPLLAFACDDKDGKYDSSREAGTVKLFGLPNDS [THOC3] | 50.6 °C | 51.9 °C | 0.047 | -1.08 | 1.13 | -0.421 |
| MAVPFVEDWDLVQTLGEGAYGEVQLAVNRVTEEAVAVKIVDMKRAVDCPENIKKEICINKMLNHENVVKFYGHRREGNIQYLFLEYCSGGELFDRIEPDIGMPEPDAQRFFHQLMAGVVYLHGIGITHRDIKPENLLLDERDNLKISDFGLATVFRYNNRERLLNKMCGTLPYVAPELLKRREFHAEPVDVWSCGIVLTAMLAGELPWDQPSDSCQEYSDWKEKKTYLNPWKKIDSAPLALLHKILVENPSARITIPDIKKDRWYNKPLKKGAKRPRVTSGGVSESPSGFSKHIQSNLDFSPVNSASSEENVKYSSSQPEPRTGLSLWDTSPSYIDKLVQGISFSQPTCPDHMLLNSQLLGTPGSSQNPWQRLVKRMTRFFTKLDADKSYQCLKETCEKLGYQWKKSCMNQVTISTTDRRNNKLIFKVNLLEMDDKILVDFRLSKGDGLEFKRHFLKIKGKLIDIVSSQKIWLPAT [CHEK1] | 51.7 °C | 51.9 °C | -0.07 | 1.82 | 1.62 | 0.104 |
| MAVPGVGLLTRLNLCARRRTRVQRPIVRLLSCPGTVAKDLRRDEQPSGSVETGFEDKIPKRRFSEMQNERREQAQRTVLIHCPEKISENKFLKYLSQFGPINNHFFYESFGLYAVVEFCQKESIGSLQNGTHTPSTAMETAIPFRSRFFNLKLKNQTSERSRVRSSNQLPRSNKQLFELLCYAESIDDQLNTLLKEFQLTEENTKLRYLTCSLIEDMAAAYFPDCIVRPFGSSVNTFGKLGCDLDMFLDLDETRNLSAHKISGNFLMEFQVKNVPSERIATQKILSVLGECLDHFGPGCVGVQKILNARCPLVRFSHQASGFQCDLTTNNRIALTSSELLYIYGALDSRVRALVFSVRCWARAHSLTSSIPGAWITNFSLTMMVIFFLQRRSPPILPTLDSLKTLADAEDKCVIEGNNCTFVRDLSRIKPSQNTETLELLLKEFFEYFGNFAFDKNSINIRQGREQNKPDSSPLYIQNPFETSLNISKNVSQSQLQKFVDLARESAWILQQEDTDRPSISSNRPWGLVSLLLPSAPNRKSFTKKKSNKFAIETVKNLLESLKGNRTENFTKTSGKRTISTQT [MTPAP] | 51 °C | 49.8 °C | 0.114 | 0.65 | 1.8 | -0.331 |
| MAVQESAAQLSMTLKVQEYPTLKVPYETLNKRFRAAQKNIDRETSHVTMVVAELEKTLSGCPAVDSVVSLLDGVVEKLSVLKRKAVESIQAEDESAKLCKRRIEHLKEHSSDQPAAASVWKRKRMDRMMVEHLLRCGYYNTAVKLARQSGIEDLVNIEMFLTAKEVEESLERRETATCLAWCHDNKSRLRKMKSCLEFSLRIQEFIELIRQNKRLDAVRHARKHFSQAEGSQLDEVRQAMGMLAFPPDTHISPYKDLLDPARWRMLIQQFRYDNYRLHQLGNNSVFTLTLQAGLSAIKTPQCYKEDGSSKSPDCPVCSRSLNKLAQPLPMAHCANSRLVCKISGDVMNENNPPMMLPNGYVYGYNSLLSIRQDDKVVCPRTKEVFHFSQAEKVYIM [MAEA] | 50.2 °C | 49.3 °C | -0.0756 | -0.838 | -0.615 | -0.0777 |
| MAVRALKLLTTLLAVVAAASQAEVESEAGWGMVTPDLLFAEGTAAYARGDWPGVVLSMERALRSRAALRALRLRCRTQCAADFPWELDPDWSPSPAQASGAAALRDLSFFGGLLRRAACLRRCLGPPAAHSLSEEMELEFRKRSPYNYLQVAYFKINKLEKAVAAAHTFFVGNPEHMEMQQNLDYYQTMSGVKEADFKDLETQPHMQEFRLGVRLYSEEQPQEAVPHLEAALQEYFVAYEECRALCEGPYDYDGYNYLEYNADLFQAITDHYIQVLNCKQNCVTELASHPSREKPFEDFLPSHYNYLQFAYYNIGNYTQAVECAKTYLLFFPNDEVMNQNLAYYAAMLGEEHTRSIGPRESAKEYRQRSLLEKELLFFAYDVFGIPFVDPDSWTPEEVIPKRLQEKQKSERETAVRISQEIGNLMKEIETLVEEKTKESLDVSRLTREGGPLLYEGISLTMNSKLLNGSQRVVMDGVISDHECQELQRLTNVAATSGDGYRGQTSPHTPNEKFYGVTVFKALKLGQEGKVPLQSAHLYYNVTEKVRRIMESYFRLDTPLYFSYSHLVCRTAIEEVQAERKDDSHPVHVDNCILNAETLVCVKEPPAYTFRDYSAILYLNGDFDGGNFYFTELDAKTVTAEVQPQCGRAVGFSSGTENPHGVKAVTRGQRCAIALWFTLDPRHSERDRVQADDLVKMLFSPEEMDLSQEQPLDAQQGPPEPAQESLSGSESKPKDEL [P3H1] | 53.2 °C | 54.3 °C | -0.0228 | 1.77 | 3.07 | -0.0649 |
| MAVSESQLKKMVSKYKYRDLTVRETVNVITLYKDLKPVLDSYVFNDGSSRELMNLTGTIPVPYRGNTYNIPICLWLLDTYPYNPPICFVKPTSSMTIKTGKHVDANGKIYLPYLHEWKHPQSDLLGLIQVMIVVFGDEPPVFSRPISASYPPYQATGPPNTSYMPGMPGGISPYPSGYPPNPSGYPGCPYPPGGPYPATTSSQYPSQPPVTTVGPSRDGTISEDTIRASLISAVSDKLRWRMKEEMDRAQAELNALKRTEEDLKKGHQKLEEMVTRLDQEVAEVDKNIELLKKKDEELSSALEKMENQSENNDIDEVIIPTAPLYKQILNLYAEENAIEDTIFYLGEALRRGVIDLDVFLKHVRLLSRKQFQLRALMQKARKTAGLSDLY [TSG101] | 50.7 °C | 50.2 °C | -0.0618 | -0.385 | -0.589 | 0.617 |
| MAVSVTPIRDTKWLTLEVCREFQRGTCSRPDTECKFAHPSKSCQVENGRVIACFDSLKGRCSRENCKYLHPPPHLKTQLEINGRNNLIQQKNMAMLAQQMQLANAMMPGAPLQPVPMFSVAPSLATNASAAAFNPYLGPVSPSLVPAEILPTAPMLVTGNPGVPVPAAAAAAAQKLMRTDRLEVCREYQRGNCNRGENDCRFAHPADSTMIDTNDNTVTVCMDYIKGRCSREKCKYFHPPAHLQAKIKAAQYQVNQAAAAQAAATAAAMTQSAVKSLKRPLEATFDLGIPQAVLPPLPKRPALEKTNGATAVFNTGIFQYQQALANMQLQQHTAFLPPVPMVHGATPATVSAATTSATSVPFAATATANQIPIISAEHLTSHKYVTQM [MBNL1] | 52.3 °C | 52.2 °C | 0.353 | -3.27 | -3.37 | 0.11 |
| MAVTDSLSRAATVLATVLLLSFGSVAASHIEDQAEQFFRSGHTNNWAVLVCTSRFWFNYRHVANTLSVYRSVKRLGIPDSHIVLMLADDMACNPRNPKPATVFSHKNMELNVYGDDVEVDYRSYEVTVENFLRVLTGRIPPSTPRSKRLLSDDRSNILIYMTGHGGNGFLKFQDSEEITNIELADAFEQMWQKRRYNELLFIIDTCQGASMYERFYSPNIMALASSQVGEDSLSHQPDPAIGVHLMDRYTFYVLEFLEEINPASQTNMNDLFQVCPKSLCVSTPGHRTDLFQRDPKNVLITDFFGSVRKVEITTETIKLQQDSEIMESSYKEDQMDEKLMEPLKYAEQLPVAQIIHQKPKLKDWHPPGGFILGLWALIIMVFFKTYGIKHMKFIF [PIGK] | 53.5 °C | 53.5 °C | -0.0814 | 1.4 | 0.424 | -0.134 |
| MAVVPLLLLGGLWSAVGASSLGVVTCGSVVKLLNTRHNVRLHSHDVRYGSGSGQQSVTGVTSVDDSNSYWRIRGKSATVCERGTPIKCGQPIRLTHVNTGRNLHSHHFTSPLSGNQEVSAFGEEGEGDYLDDWTVLCNGPYWVRDGEVRFKHSSTEVLLSVTGEQYGRPISGQKEVHGMAQPSQNNYWKAMEGIFMKPSELLKAEAHHAEL [SDF2] | 54.3 °C | 54.1 °C | -0.129 | 4.15 | 3.09 | 0.097 |
